The source of these data is PMC4658334, “Reassessment of MxiH subunit orientation and fold within native Shigella T3SS needles using surface labelling and solid-state NMR” (Journal of Structural Biology, 2015).

Positions count from the first letter of the chain named.

Series [1] concerns the molecule itself. The series can be described thus: negative-stain electron microscopy of purified needles; purified needle preparations, about 0.1 μg/ml, on carbon-coated grids, stained with 1% phosphotungstic acid pH 7; self-association of the subunit into the needle polymer.
Series [2] deals with the molecule itself. The series can be described thus: solid-state NMR; 5-7 mg of uniformly 13C,15N labelled natively grown needles packed in a 1.9 mm rotor; 20.0 T, 18 kHz MAS; self-association of the subunit into the needle polymer.

B1: MxiH L32C (natural protein)
chain: MSVTVPNDDWTLSSLSETFDDGTQTLQGELTCALDKLAKNPSNPQLLAEYQSKLSEYTLYRNAQSNTVKVIKDVDAAIIQNFR
notes: MxiH, needle subunit of the T3SS, Shigella flexneri, with leucine 32 changed to cysteine; cloned into pACT3 via NdeI and HindIII; Printed mass of the unlabelled subunit is 9123.5 Da; source: S. flexneri, expressed from pACT3 with 200 μM IPTG; needles purified
In the case of B1, in series [1], the binding result is on record as “binds”.

B2: MxiH V68C (natural protein)
chain: B1 chain with C32L, V68C
notes: MxiH, needle subunit of the T3SS, Shigella flexneri, with valine 68 changed to cysteine; gene synthesized and cloned into pACT3 via NdeI and HindIII; Printed mass of the unlabelled subunit is 9137.5 Da; source: S. flexneri, expressed from pACT3 with 200 μM IPTG; needles purified
In the case of B2, the binding result in series [1] is listed as “binds”.

B3: MxiH, needle subunit of the Shigella flexneri type III secretion system (wild type, serotype 5) (natural protein)
chain: B1 chain with C32L
modifications: uniformly 13C,15N labelled
notes: MxiH, needle subunit of the T3SS, Shigella flexneri serotype 5; expressed from pACT3mxiH; arranged as a helical polymer (needle); Helical polymer; also called WT MxiH; native MxiH needles; source: S. flexneri ΔmxiH (pACT3mxiH), 200 μM IPTG, M9-type minimal medium; in vivo assembled needles shaved from the bacterial surface and purified
As to B3, the binding result in series [2] was “binds”.
